{"source": "patent US20020115613A1", "about": "“Treatment of prostate cancer” (priority 2001, published 2002)", "molecules": {"B1": {"name": "Tumor necrosis factor α—Related Apoptosis Inducing Ligand (protein, UniProt P50591 1-281, looked up)", "Tumor necrosis factor ligand …": "MAMMEVQGGPSLGQTCVLIVIFTVLLQSLCVAVTYVYFTNELKQMQDKYSKSGIACFLKEDDSYWDPNDEESMNSPCWQVKWQLRQLVRKMILRTSEETISTVQEKQQNISPLVRERGPQRVAAHITGTRGRSNTLSSPNSKNEKALGRKINSWESSRSGHSFLSNLHLRNGELVIHEKGFYYIYSQTYFRFQEEIKENTKNDKQMVQYIYKYTSYPDPILLMKSARNSCWSKDAEYGLYSIYQGGIFELKENDRIFVSVTNEHLIDMDHEASFFGAFLVG", "notes": "281 amino acid type II transmembrane protein of the tumor necrosis factor α family; purchased from Biomol"}}, "key": {"[1]": {"tested_on": "LNCaP cells", "assay": "Apoptosense assay (M30 ELISA, cleaved cytokeratin 18)", "type": "cell-based", "experimental": "LNCaP were obtained from American Type Culture Collection (Rockville, Md.) and LNCaP C4-2 cells were purchased from Urocor Inc., Oklahoma City, Okla. Cells were grown in RPMI 1640 medium supplemented with 10% (LNCaP) or 5% (LNCaP C4-2) fetal bovine serum (Hyclone, Logan, Utah) and grown in the presence of 5% CO2 at 37° C. Cells were treated with 10 μM Mifepristone (Sigma, St. Louis, Mo.) for three days or with increasing concentrations (from 200 ng/ml to 600 ng/ml) of TRAIL (Biomol Research Laboratories, Inc., Plymouth Meetings, Pa.) for varying time intervals 2, 4, 6, 8, 16, 20 and 24 hours (hr). Thus, for treatment with Mifepristone, cells were treated with Mifepristone for three days and then some cells treated (without washing) with TRAIL for indicated periods. Upon completion of the experiment, cells were harvested, and total proteins, cytosol or mitochondrial fractions were isolated as described below. At least three experiments were conducted with a minimum of four plates per treatment per experiment. Two methods were used to measure induction of apoptosis by drug treatment: the MTT assay and the Apoptosense assay. The MTT assay measures mitochondrial enzyme activity and is indicative of the number of surviving cells. […] Cells were plated in petri dishes and after completion of the treatment, cells were harvested and total protein extracted as described below. […] Color was developed by adding tetramethylbenzidine solution and the optical density of the bound antibody was determined at 450 nm on a Spectra MAX 340 microplate reader (Molecular Devices, Menlo Park, Calif.). Standard solution supplied by the supplier was used for generating standard curves."}, "[2]": {"tested_on": "LNCaP cells", "details": "cited from earlier work"}, "[3]": {"tested_on": "prostate cancer cells", "details": "cited from earlier work"}, "[4]": {"tested_on": "PC3AR cells", "assay": "Induction of apoptosis / cell survival (FIG. 1E, 6A)", "type": "cell-based", "quoted_text": "Two methods were used to measure induction of apoptosis by drug treatment: the MTT assay and the Apoptosense assay. The MTT assay measures mitochondrial enzyme activity and is indicative of the number of surviving cells. The Apoptosense assay is an ELISA, which utilizes M30 antibody to recognize the C-terminal domain (amino acids 387-396) of cytokeratin 18 that is exposed in apoptotic cells after cleavage by caspases.\nCells were seeded in 96-well plates (6000 cells/well) and treatment was started 24 hr after seeding the cells. After completion of the treatment, cells were incubated at 37° C. with the MTT reagent for 3 hr and processed according to manufacturers instructions (Promega Corporation, Madison, Wis.). Color development was measured at 490 nm on a Spectra MAX 340 microplate reader (Molecular Devices, Menlo Park, Calif.)."}, "[5]": {"tested_on": "PC3AR cells", "assay": "Western blotting of death receptors, caspases, Bid, NFκB, XIAP", "type": "cell-based", "experimental": "(§1) Prostate cancer cell lines, PC3Neo and PC3AR were provided by Dr. K. Burnstein, University of Miami School of Medicine, Miami, Fla. PC3AR cells are a clonal cell line derived by stable transfection of PC3 with a full-length human AR cDNA (Dai, J. L., et al., Steroids, 61, 531-539, 1996). PC3Neo cells were stably transfected with neomycin vector alone. Cells were grown in RPMI 1640 with 5% FBS (Hyclone, Logan, Utah), 100 units/ml penicillin, 100 μg/ml streptomycin, 0.25 μg/ml fungizone and G418 (350 μg/ml) to select for neomycin-resistant cells. In experiments using antiandrogens, cells were maintained in 5% DCC stripped serum for at least 48 hr before treatment with hydroxyflutamide (Sigma Chemical Co., St. Louis, Mo.). The medium and all the drugs were replaced every two days. Cells were treated with 200 ng/ml, 400 ng/ml or 600 ng/ml of TRAIL (Biomol Research Laboratories, Inc, Plymouth Meeting, Pa.) for 2, 4, 6, 8, 16 and 20 hr. Cells were treated with 5 μM hydroxyflutamide for 5 days before the commencement of treatment with 400 ng/ml TRAIL.\n(§2) Cells were harvested by trypsinization, washed in 1×PBS and cell pellets resuspended in lysis buffer (100 mM Tris-HCl pH 8.0, 0.1% Triton X 100 and protease inhibitor cocktail from Roche Diagnostic Corporation, Indianapolis, Ind.). Cells were incubated over ice for 30 min and centrifuged at 10,000 g at 4° C. for 10 min. The supernatant was collected and the protein concentration estimated using Bio-Rad protein reagent (Bio-Rad Laboratories, Hercules, Calif.).\n(§3) Proteins (50 μg, unless stated otherwise) were separated on NuPAGE 10% Bis-Tris gels (Novex pre-cast mini gels, InVitrogen, Carlsbad, Calif.) at 100 volts for 1 hour in the presence of 1×MES-SDS running buffer (InVitrogen, Carlsbad, Calif.). Separated proteins were transferred to (PVDF) membranes (Bio-Rad Laboratories, Hercules, Calif.) at 42 volts for 2.5 hr using a Novex XCell II blotting apparatus in MES transfer buffer in the presence of NuPAGE antioxidant. Transfer of the proteins to the polyvinylidene difluoride (PVDF) membrane was confirmed by staining with Ponceau S (Sigma, St. Louis, Mo.). The blots were blocked in 5% non-fat dry milk in TBS, washed twice for 10 min each with TBS containing 0.1% Tween-20 and incubated for 2 hr at RT with primary antibody diluted in TBS containing 0.5% milk.\n(§4) The following antibodies were used in the immunoblots: DR4, DR5 and cytochrome c (Imgenex, San Diego, Calif.), BID (BioSource International, Camarillo, Calif.), caspases-8, -9, and Akt (Cell Signaling Technology, Beverely, Mass.), caspase-3 (BD Pharmingen, San Diego, Calif.) Iκβ and XIAP (Cell Signaling Technology, Beverly, Mass.), cFLIP (StressGen Biotechnology Corp, Victoria, Canada), actin (Sigma Chemical Co., St. Louis, Mo.) and Cox II (Molecular Probes, Eugene, Oreg.). Immunoreactive bands were visualized using ECL detection system (Amersham, Pharmacia Biotech, Arlington Heights, Ill.) and signals were developed after exposure to X-ray film (X-Omat films, Eastman Kodak Company, Rochester, N.Y.).\n(§5) For separation of mitochondrial and cytosolic fractions, cells were trypsinized, centrifuged at 600 g for 10 min at 4° C., washed twice in ice-cold PBS and re-suspended in buffer A (20 mM HEPES-KOH, pH 7.2, 10 mM KCl, 1.5 mM MgC12, 1 mM sodium-EDTA, 1 mM sodium-EGTA, 250 mM sucrose and protease inhibitor cocktail). Cells were homogenized on ice with a glass Dounce homogenizer (30 strokes) and were centrifuged at 750 g for 5 min at 4° C. The supernatant was centrifuged for 15 min at 10,000 g at 4° C. to pellet mitochondria, which was washed and resuspended in lysis buffer. The supernatant was centrifuged at 100,000 g for 60 min at 4° C. and S-100 cytosol was collected. […]"}, "[6]": {"tested_on": "PC3Neo cells", "assay": "Western blotting of death receptors, caspases, Bid, NFκB, XIAP", "type": "cell-based", "experimental": "as §1, §2, §3, §4, §5"}, "[7]": {"details": "400 ng/ml TRAIL, by 2 hr, FIG. 2C"}}}
{"molecule": "CC#C[C@]1(O)CC[C@H]2[C@@H]3CCC4=CC(=O)CCC4=C3[C@@H](c3ccc(N(C)C)cc3)C[C@@]21C", "note": "[Mifepristone]", "values": [{"measurement": "M30 activity (in words)", "setting": "[1]", "value": "lower M30 activity"}, {"measurement": "induction of tBid (Sridhar et al., 2001)", "setting": "[2]", "value": "weakly induced"}, {"measurement": "ability to induce apoptosis in prostate cancer cells (Sridhar et al., 2001)", "setting": "[3]", "value": "marginal ability to induce apoptosis"}]}
{"molecule": "B1", "values": [{"measurement": "apoptotic response at 200 ng/ml", "setting": "[4]; 200 ng/ml TRAIL", "value": "lower response"}, {"measurement": "apoptosis", "setting": "[4]; 400 ng/ml TRAIL, by 20 hr, FIG. 1E", "value": "~41", "unit": "%"}, {"measurement": "apoptosis at higher dose", "setting": "[4]; 600 ng/ml TRAIL", "value": "did not significantly increase apoptosis"}, {"measurement": "increase in expression of DR5", "setting": "[5]; [7]", "value": "~5", "unit": "fold"}, {"measurement": "increase in expression of DR5 (peak)", "setting": "[5]; 400 ng/ml TRAIL, by 16 hr, FIG. 2C", "value": "~8", "unit": "fold"}, {"measurement": "DcR2 expression", "setting": "[5]; TRAIL treatment", "value": "did not significantly alter DcR2 expression"}, {"measurement": "DR4 levels", "setting": "[5]; TRAIL-treated", "value": "increased"}, {"measurement": "cleaved caspase-9", "setting": "[5]; by 4 hr, lasted until 16 hr", "value": "significant levels of cleaved caspase-9 were detected"}, {"measurement": "tBid in mitochondria", "setting": "[5]; mitochondrial fraction, not shown", "value": "translocated into mitochondria within 2 hours"}, {"measurement": "XIAP levels", "setting": "[5]; not shown", "value": "did not alter XIAP levels significantly"}, {"measurement": "cleaved caspase-3 (p17)", "setting": "[5]; not shown", "value": "present in both cell lines as early as 2 hr"}, {"measurement": "expression of NFκB", "setting": "[5]; not shown", "value": "increased the expression of NFκB levels"}, {"measurement": "mature p12 caspase-3 product", "setting": "[5]; not shown", "value": "noted only in PC3AR"}, {"measurement": "tBid expression", "setting": "[5]; not shown", "value": "detected up to 8 hr of treatment"}, {"measurement": "cleavage of procaspase-8", "setting": "[5]; within 2 hr, not shown", "value": "induced cleavage of procaspase-8"}, {"measurement": "activated caspase-9", "setting": "[6]", "value": "not detected"}, {"measurement": "increase in expression of DR5", "setting": "[6]; [7]", "value": "~2", "unit": "fold"}, {"measurement": "DcR2 expression", "setting": "[6]; TRAIL treatment", "value": "did not significantly alter DcR2 expression"}, {"measurement": "DR4 levels", "setting": "[6]; TRAIL-treated", "value": "did not show significant changes"}, {"measurement": "tBid expression", "setting": "[6]; by 4 hr of TRAIL treatment, not shown", "value": "little tBid was present"}, {"measurement": "tBid in mitochondria", "setting": "[6]; mitochondrial fraction, highest level by 2 hr, not shown", "value": "significantly lower than that seen in PC3AR cells"}, {"measurement": "XIAP levels", "setting": "[6]; not shown", "value": "did not alter XIAP levels significantly"}, {"measurement": "cleaved caspase-3 (p17)", "setting": "[6]; not shown", "value": "present in both cell lines as early as 2 hr"}, {"measurement": "expression of NFκB", "setting": "[6]; not shown", "value": "increased the expression of NFκB levels"}, {"measurement": "mature p12 caspase-3 product", "setting": "[6]; not shown", "value": "noted only in PC3AR"}, {"measurement": "cleavage of procaspase-8", "setting": "[6]; within 2 hr, not shown", "value": "induced cleavage of procaspase-8"}]}
